Test results from patent publication US20250026859A1 (BEIGENE, published 2025).

B1: 35D6 (antibody, V domains shown)
VH: QSVEESGGRLVTPGTPLTLTCTVSGFSLSSHWMSWVRQAPGKGLEWIGIISSSGSTDYVSWAKGRFTISKTSTTVDLKITSPTTEDTATYFCARDLGYSTNIWGPGTLVTVSL
VL: AYDMTQTPASVEVTVGGTVTIKCQASQSIGSYLAWYQQKPGQRPKLLIYDASTLASGVSSRFKGSGSGTQFTLTISGVECADAATYYCQQGYSSSGVDNAFGGGTEVVVK
notes: also called recombinant anti-DXd mAb 35D6
B2: 77G10 (antibody, V domains shown)
VH: QSLEESGGRLVTPGTPLTLTCTASGFSLSSYYMSWVRQAPGKGLEYIGIISSSGSTDYASWAKGRFTISKTSTTVDLKITSPTTEDTATYFCARGWLDLWGQGTLVTVSS
VL: AAVLTQTPSPVSAAVGGTVSISCQSSKSVYNNNWLSWLQQKPGQPPKLLIHGASTLASGVPSRFKGSGSGTQFTLTISDVQCDDAATYYCAGGYSSSTDNAFGGGTEVVVK
notes: also called recombinant anti-DXd mAb 77G10
B3: 28C8 (antibody, V domains shown)
VH: QSVEESGGRLVTPGTPLTLTCTVSGFSLSSYAMNWVRQAPGKGLEYIGIIYDSGSTYYANWAKGRFTISKTSTTVDLKITSPTTEDTATYFCARGYLDIWGPGTLVTVSS
VL: AAVLTQTPSPVSAAVGGTVSISCQSSKSVYNNKWLSWLQQKPGQPPKLLIYGASTLASGVPSRFKGSGSGTEFTLTISDVQCDDAATYYCAGGYSISSDNAFGGGTEVVVK
notes: also called recombinant anti-DXd mAb 28C8
B4: 76G4 (antibody, V domains shown)
VH: QSVEESGGRLVTPGTPLTLTCTASGFSLSSYYMFWVRQAPGKGLEYIGYIGDGGYTSYATWAKGRFTISKTSSTTVDLKITSPTTEDTATYFCARDGFTSGSIWGPGTLVTVSS
VL: AAVLTQTPSPVSTAVGGTVTISCQSSKNVYNNNWLSWFQQKPGQPPKLLIYGTSTLASGVPSRFKGSGSGTQFTLTISDVQCDDAATYYCAGGYSSSSDNGFGAGTEVVVK
notes: also called recombinant anti-DXd mAb 76G4
B5: 29D2 (antibody, V domains shown)
VH: QSVEESGGRLVTPGTPLTLTCTASGFSLSSYAMNWVRQAPGKGLEYIGIIYDSGTTYYASWAKGRFTISKTSTTVDLKITSPTTEDTATYFCARAALDIWGPGTLVTVSS
VL: AAVLTQTPSPVSAAVGGTVSISCQASKSVYNNNWLSWVQQTPGQPPKLLIYGASTLASGVPSRFKGSGSGTQFTLTISDVQCDDAATYYCAGGYGSSSDNAFGGGTEVVVE
notes: also called recombinant anti-DXd mAb 29D2

Target: T1, DXd-conjugated antigen
T1 construct: also called DXd conjugated antigens
Test: competitive ELISA: coated DXd-conjugated antigen, antibody titrated with 1 ug/ml free biotin-DXd (small molecule) as competitor, streptavidin-HRP detection

| Binder | IC50 [ng/mL] |
| --- | --- |
| B1 | 5.24 |
| B2 | 0.953 |
| B3 | 1.58 |
| B4 | 0.753 |
| B5 | 1.26 |
